# Measured values as given in PMC11208920, “The binding of LARP6 and DNAAF6 in biomolecular condensates influences ciliogenesis of multiciliated cells”.
# T1: rLARP6 (recombinant human LARP6, LAM+RRM only) (Homo sapiens, UniProt Q9BRS8 73-303)
# T1 sequence: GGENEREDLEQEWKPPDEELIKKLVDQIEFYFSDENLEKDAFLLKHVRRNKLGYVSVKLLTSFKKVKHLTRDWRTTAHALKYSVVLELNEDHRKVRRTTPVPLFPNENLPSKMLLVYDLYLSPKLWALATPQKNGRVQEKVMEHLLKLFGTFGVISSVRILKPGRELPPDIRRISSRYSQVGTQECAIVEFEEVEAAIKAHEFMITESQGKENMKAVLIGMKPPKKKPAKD
# B1: xTUBA1CL RNA probe (ssRNA)
# RNA: GAGGGAGAAGAAUAUUAAAUAAUAAAUCAAAAGCUUCACAAUAAUACCUGCAGAUUUUGUUUGAAAUAAUAAUUUUGAAUAAAUACGUUUUUAUCUUGUA
# Assays:
# [1] = biological target: T1, rLARP6 (recombinant human LARP6, …); assay: EMSA; 5 mM Mg2+; monomer and dimer complexes; 10 mM Tris pH 7.5, 100 mM KCl, 5 mM MgCl2, room temperature, 10 min; 6% native gel, SYBR Gold; conditions: protein: recombinant
# [2] = biological target: T1, rLARP6 (recombinant human LARP6, …); assay: EMSA; 5 mM Mg2+; 10 mM Tris pH 7.5, 100 mM KCl, 5 mM MgCl2, room temperature, 10 min; 6% native gel, SYBR Gold; conditions: protein: recombinant; label: SYBR Gold stain
binder,measurement,setting,value
B1,binding result,[1]; label: SYBR Gold stain (Results text says radiolabeled),binds
CCACAAAGAGUCUACAUGUCUAGGGUCUAGACAUGUUCAGCUUUGUGG (structured_RNA) [hCOL1A2 WT RNA],binding result,[1]; label: SYBR Gold stain,binds
CCACAAAGUGACUACAUGUCUAGGGUCUAGACAUGUUAUUCUUUGUGG (structured_RNA) [hCOL1A2 MUT RNA],binding result,[2],no binding
